Source: paper PMC4207663

Key:
[1] = target: Rco_(LS20)-His(6) (Bacillus subtilis (plasmid pLS20cat)); test: AUC; sedimentation equilibrium; 10 to 30 uM Rco_(LS20); same buffer as sedimentation velocity; 7,000 to 10,000 rpm; 280 nm; single species model (HeteroAnalysis)
[2] = target: Rco_(LS20)-His(6) (Bacillus subtilis (plasmid pLS20cat)); test: AUC; sedimentation velocity; 10 uM purified Rco_(LS20); 20 mM Tris-HCl, 250 mM NaCl, 10 mM MgCl2, 1 mM EDTA, 100 mM glycerol, pH 7.4; 43-48 krpm; 280 nm; c(s) analysis with SEDFIT

Rco_(LS20)-His(6) (natural protein) was tested, and the stoichiometry N [1] was 4 and the stoichiometry N [2] was 4.
